Experimental data as given in PMC7617061.

Molecular target: U1-C zinc finger (UniProt P09234)
Test: NMR titration
Conditions: pseudouridine at U1 strand positions 5 and 6

Sequence of UniProt P09234 (P09234 1-61): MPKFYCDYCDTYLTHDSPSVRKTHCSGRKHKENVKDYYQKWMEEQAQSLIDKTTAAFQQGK

AUACUUACCUG / GGAGUAAGUCU [U1 snRNA 5'-end / SMN2 E7 5'-SS RNA duplex]
binding signal (fold affinity increase vs no SMN-C5): 3
